The numbers were not newly measured in paper PMC11764136, which cites them from elsewhere.

This series has as its target amyloid-β oligomers Aβ (Homo sapiens) (UniProt P05067).

Turning to PrPC (from UniProt P04156), the Kd was 4 nM.
